Assay results reported in patent US20150353909.

What was measured:
[1] = molecular target: HA3-UBQ-GST [GST: P08515]
HA3-RUB-GST, Q9SHE7 = molecular target: T1, HA3-RUB-GST, Q9SHE7
T1 chain: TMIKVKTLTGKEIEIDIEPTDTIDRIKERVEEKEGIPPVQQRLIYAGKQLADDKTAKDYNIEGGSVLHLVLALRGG

[2] = molecular target: K63-tetraubiquitin chains, P0CG48
[3] = molecular target: purified recombinant linear UB trimers
[4] = molecular target: K48-tetraubiquitin chains, P0CG48
[5] = molecular target: purified recombinant linear UB dimers
[6] = molecular target: purified recombinant linear UB tetramers

K48-tetraubiquitin chains, P0CG48, sequence (P0CG48 whole entry, looked up): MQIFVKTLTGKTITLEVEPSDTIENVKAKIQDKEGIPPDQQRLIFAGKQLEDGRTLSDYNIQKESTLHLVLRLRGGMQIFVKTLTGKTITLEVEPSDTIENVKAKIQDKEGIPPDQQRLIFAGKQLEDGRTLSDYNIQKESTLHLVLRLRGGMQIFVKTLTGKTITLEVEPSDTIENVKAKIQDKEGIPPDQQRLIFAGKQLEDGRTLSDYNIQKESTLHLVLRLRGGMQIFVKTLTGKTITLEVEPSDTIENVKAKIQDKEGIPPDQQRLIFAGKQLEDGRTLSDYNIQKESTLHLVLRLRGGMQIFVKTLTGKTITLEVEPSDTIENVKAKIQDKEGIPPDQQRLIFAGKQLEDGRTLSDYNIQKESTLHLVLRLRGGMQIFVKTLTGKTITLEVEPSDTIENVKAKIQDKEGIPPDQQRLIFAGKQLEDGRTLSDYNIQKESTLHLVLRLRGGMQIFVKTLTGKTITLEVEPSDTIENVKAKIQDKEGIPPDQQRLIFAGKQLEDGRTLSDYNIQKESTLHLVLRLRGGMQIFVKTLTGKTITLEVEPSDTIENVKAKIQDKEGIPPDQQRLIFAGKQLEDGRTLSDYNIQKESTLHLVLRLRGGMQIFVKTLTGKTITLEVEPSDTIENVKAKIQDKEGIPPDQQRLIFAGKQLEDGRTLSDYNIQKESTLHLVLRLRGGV
K63-tetraubiquitin chains, P0CG48, sequence (P0CG48 whole entry, looked up): as above

B1: His-tagged OTU9 (protein)
chain: MGYEPDPDALRWGLHDLEVCTLTNAGSCSSVTRYESGGGGTQGYVREGYNQPVTGYVDNDAVIAQFYQDELSRVARAEASGINSLSPTSVVAQDWPHPHQGQENQGEAIDITQESDILHNHNGNMEDKNVARIRFEGGQSSPSRDDDSVCSVEIEEESWSEVGKRLNQMIPIAHVPKINGELPSEDEQISDHERLFQRLQLYGLVENKIEGDGNCQFRSLSDQLYRSPEHHNFVREQVVNQLAYNREIYEGYVPMAYNDYLKAMKRNGEWGDHVTLQAAADLFGVRMFVITSFKDTCYIEILPHFQKSNRLICLSFWAEVHYNSIYPEGELPIPEGKKKKKYWVF
- in vitro deubiquitylation activity [1]: ++
- in vitro deubiquitylation activity (HA3-RUB-GST, Q9SHE7): +
- in vitro deubiquitylation activity [2]: ++
- in vitro deubiquitylation activity [3]: -
- in vitro deubiquitylation activity [4]: ++
- in vitro deubiquitylation activity [5]: -
- in vitro deubiquitylation activity [6]: -
- in vitro deubiquitylation activity (HA3-SUMO-GST, P55852): -

B2: GST-OTU10 (protein)
chain: MVSHEENTSIVEWFLGPHPYTYPPYGIEMIHEDDEVAVAHHHHHHQSGEYYREYEDHRSSDVDNDEIIARTLQDDFLQLEIAESNDYSHQNQQQQHQQEGYTNNYSNNNNGYAWNDQSPAVDYSSEWIGNDNDQDGRSDDSVNVFSCSSPSDTDEYVYSWESDQCDADGEFGRRLNQMVPIPYIPKINGEIPPEEEAVSDHERLRNRLEMFDFTEVKVPGDGNCQFRALADQLYKTADRHKHVRRQIVKQLKSRPDSYQGYVPMDFSDYLRKMSRSGEWGDHVTLQAAADAYRVKIVVLTSFKDTCYIEILPTSQESKGVIFLSFWAEVHYNAIYLNRDTSETELQRKRKWWRFGN
- in vitro deubiquitylation activity [1]: ++
- in vitro deubiquitylation activity (HA3-RUB-GST, Q9SHE7): +
- in vitro deubiquitylation activity [2]: +++
- in vitro deubiquitylation activity [3]: -
- in vitro deubiquitylation activity [4]: ++
- in vitro deubiquitylation activity [5]: -
- in vitro deubiquitylation activity [6]: -
- in vitro deubiquitylation activity (HA3-SUMO-GST, P55852): -
